Data on four molecules can be found in publication doi:10.1101/283192.

Holding throughout (conditions): remark: other sources report otherwise
Experiment [1] has as its target T1, CHIP (carboxyl terminus of heat shock 70-interacting protein), wild type, His-tagged recombinant (human), Q9UNE7.
T1 chain: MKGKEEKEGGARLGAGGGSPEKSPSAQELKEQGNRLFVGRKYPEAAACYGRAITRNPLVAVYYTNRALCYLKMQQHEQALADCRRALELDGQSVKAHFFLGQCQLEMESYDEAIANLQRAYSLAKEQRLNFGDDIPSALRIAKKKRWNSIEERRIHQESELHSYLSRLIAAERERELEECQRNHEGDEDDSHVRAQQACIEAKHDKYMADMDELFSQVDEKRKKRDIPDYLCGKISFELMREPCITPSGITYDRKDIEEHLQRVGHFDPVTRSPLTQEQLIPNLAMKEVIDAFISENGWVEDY
The experiment in a line: SEC-MALS. A general note: SEC sorts molecules by how far they enter the pores of the column.

For experiment [2], the target named is T2, myc-CHIP-K30A (pcDNA3-mycCHIP-K30A) (human), Q9UNE7.
T2 chain: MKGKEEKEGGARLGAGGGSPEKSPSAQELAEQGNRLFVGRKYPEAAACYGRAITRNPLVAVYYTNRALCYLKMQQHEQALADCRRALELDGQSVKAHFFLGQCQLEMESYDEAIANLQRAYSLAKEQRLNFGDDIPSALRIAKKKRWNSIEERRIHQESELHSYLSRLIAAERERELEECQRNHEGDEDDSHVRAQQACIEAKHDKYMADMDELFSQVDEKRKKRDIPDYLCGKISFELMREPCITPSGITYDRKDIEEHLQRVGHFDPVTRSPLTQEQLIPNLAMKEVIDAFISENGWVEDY
Put plainly: native gel or EMSA.

For experiment [3], the target named is T3, myc-CHIP wild type (pcDNA3-mycCHIP) (human), Q9UNE7.
T3 chain: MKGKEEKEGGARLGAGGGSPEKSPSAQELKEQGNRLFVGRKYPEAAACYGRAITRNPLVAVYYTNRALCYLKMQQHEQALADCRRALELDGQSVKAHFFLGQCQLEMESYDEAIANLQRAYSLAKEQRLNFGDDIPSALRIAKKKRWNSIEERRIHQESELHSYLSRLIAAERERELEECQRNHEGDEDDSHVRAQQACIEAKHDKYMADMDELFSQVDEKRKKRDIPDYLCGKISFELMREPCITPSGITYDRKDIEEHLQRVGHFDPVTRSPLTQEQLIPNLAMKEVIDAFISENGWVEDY
The experiment in a line: native gel or EMSA.

Experiment [4] addresses T4, CHIP-K30A, His-tagged recombinant (human), Q9UNE7.
T4 chain: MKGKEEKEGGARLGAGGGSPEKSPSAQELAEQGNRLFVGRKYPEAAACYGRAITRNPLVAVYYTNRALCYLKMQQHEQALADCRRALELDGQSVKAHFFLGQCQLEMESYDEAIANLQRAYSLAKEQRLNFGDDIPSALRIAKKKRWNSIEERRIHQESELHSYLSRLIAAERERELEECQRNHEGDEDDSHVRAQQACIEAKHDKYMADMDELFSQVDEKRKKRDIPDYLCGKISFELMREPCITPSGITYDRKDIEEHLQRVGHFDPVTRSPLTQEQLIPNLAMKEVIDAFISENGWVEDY
Put plainly: SEC-MALS.

B1: CHIP (carboxyl terminus of heat shock 70-interacting protein), wild type, His-tagged recombinant, Q9UNE7 1-303 (natural protein)
chain: MKGKEEKEGGARLGAGGGSPEKSPSAQELKEQGNRLFVGRKYPEAAACYGRAITRNPLVAVYYTNRALCYLKMQQHEQALADCRRALELDGQSVKAHFFLGQCQLEMESYDEAIANLQRAYSLAKEQRLNFGDDIPSALRIAKKKRWNSIEERRIHQESELHSYLSRLIAAERERELEECQRNHEGDEDDSHVRAQQACIEAKHDKYMADMDELFSQVDEKRKKRDIPDYLCGKISFELMREPCITPSGITYDRKDIEEHLQRVGHFDPVTRSPLTQEQLIPNLAMKEVIDAFISENGWVEDY
One may read the stoichiometry N as a count of units in the complex or per binding partner. For the molecule B1, the stoichiometry N in experiment [1] was found to be 2.

B2: myc-CHIP-K30A (pcDNA3-mycCHIP-K30A), Q9UNE7 1-303 (natural protein)
chain: MKGKEEKEGGARLGAGGGSPEKSPSAQELAEQGNRLFVGRKYPEAAACYGRAITRNPLVAVYYTNRALCYLKMQQHEQALADCRRALELDGQSVKAHFFLGQCQLEMESYDEAIANLQRAYSLAKEQRLNFGDDIPSALRIAKKKRWNSIEERRIHQESELHSYLSRLIAAERERELEECQRNHEGDEDDSHVRAQQACIEAKHDKYMADMDELFSQVDEKRKKRDIPDYLCGKISFELMREPCITPSGITYDRKDIEEHLQRVGHFDPVTRSPLTQEQLIPNLAMKEVIDAFISENGWVEDY
As to B2, the stoichiometry N in experiment [2] came out at 2.

B3: myc-CHIP wild type (pcDNA3-mycCHIP), Q9UNE7 1-303 (natural protein)
chain: MKGKEEKEGGARLGAGGGSPEKSPSAQELKEQGNRLFVGRKYPEAAACYGRAITRNPLVAVYYTNRALCYLKMQQHEQALADCRRALELDGQSVKAHFFLGQCQLEMESYDEAIANLQRAYSLAKEQRLNFGDDIPSALRIAKKKRWNSIEERRIHQESELHSYLSRLIAAERERELEECQRNHEGDEDDSHVRAQQACIEAKHDKYMADMDELFSQVDEKRKKRDIPDYLCGKISFELMREPCITPSGITYDRKDIEEHLQRVGHFDPVTRSPLTQEQLIPNLAMKEVIDAFISENGWVEDY
In turn, B3 gave a stoichiometry N in experiment [3] of 2.

B4: CHIP-K30A, His-tagged recombinant, Q9UNE7 1-303 (natural protein)
chain: MKGKEEKEGGARLGAGGGSPEKSPSAQELAEQGNRLFVGRKYPEAAACYGRAITRNPLVAVYYTNRALCYLKMQQHEQALADCRRALELDGQSVKAHFFLGQCQLEMESYDEAIANLQRAYSLAKEQRLNFGDDIPSALRIAKKKRWNSIEERRIHQESELHSYLSRLIAAERERELEECQRNHEGDEDDSHVRAQQACIEAKHDKYMADMDELFSQVDEKRKKRDIPDYLCGKISFELMREPCITPSGITYDRKDIEEHLQRVGHFDPVTRSPLTQEQLIPNLAMKEVIDAFISENGWVEDY
With B4, the stoichiometry N in experiment [4] was 2.
